We go through eight molecules from patent publication US20230095167A1 (UNIVERSITEIT MAASTRICHT, published 2023).

In test [1] the target is T1, recombinant NT-proBMP10 (22-312) (human, UniProt O95393 22-312).
T1 construct: In-house construct; also called pro-peptide BMP10; BMP10(312)
T1 sequence: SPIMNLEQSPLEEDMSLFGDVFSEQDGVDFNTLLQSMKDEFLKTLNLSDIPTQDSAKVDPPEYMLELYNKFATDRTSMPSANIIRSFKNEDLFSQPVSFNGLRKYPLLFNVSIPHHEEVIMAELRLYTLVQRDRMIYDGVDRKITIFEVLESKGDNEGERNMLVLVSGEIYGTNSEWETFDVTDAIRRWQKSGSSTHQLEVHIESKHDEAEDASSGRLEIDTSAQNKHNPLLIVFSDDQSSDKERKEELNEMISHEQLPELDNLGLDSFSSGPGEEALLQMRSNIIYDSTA
Description: SPR Biacore 8K, 37°C, bound analyte per mAb.

Test [2] concerns the target T1, recombinant NT-proBMP10 (22-312). Description: SPR Biacore 8K, 37°C, mAb captured by goat anti-rabbit Fc, BMP10(312) 3.7-300 nM as analyte; apparent, avidity-burdened. As to the method:
(§1) The association phase was monitored for 3 minutes; dissociation phase was monitored for 10 minutes. After each cycle of kinetics determination, the rabbit clones were eluted from the capture system by an injection of 10 mM Glycine pH 2.0 for 1 minute, followed by two consecutive injections of 10 mM Glycine pH 2.25 at 20 μL/min for 1 minute.
(§2) The dissociation rate constant kd was evaluated using a Langmuir 1:1 fit model according to the BIAcore™ evaluation software Insight SW V 2.0 from GE Healthcare. The antigen/antibody complex stability half-life time (minutes) was calculated according to the formula ln(2)/60*kd.

The target is the same in test [3]. Description: SPR Biacore 8K, 37°C, mAb captured, BMP10(312) as analyte; ln(2)/60*kd. As to the method:
as §1, §2

B1: MAB<BMP10>rRb-3H8 HC3/LC3 (p10qx/p10qy)-IgG(SPA) (antibody, V domains shown)
VH: QSVEESGGRLVTPGTPLTLTCTASGFSLSKYDMSWVRQAPGKGLEWIGAIGGRGVTDYTTWAKGRFTISKTATTVDLKMTSPTTEDTATYFCVRALAGDTLWGPGTLVTVSS
VL: AQVLTQTASPVSAAVGSTVTINCQASQNIYKYNNLAWYQQKPGQPPKRLIYEASKLASGVPSRFSGSGSGTQFTLTISGVQCEDAATYYCQGTFECSSADCFGFGGGTEVVVK
notes: Recombinant rabbit monoclonal IgG; also called clone 3H8; VH-7/VL-7
For B1, the “MR (Molar Ratio)” value in test [1] is 1.3. Moreover, the koff in test [2] amounted to 0.00078 s⁻¹. Also, the “t/2 diss (complex half-life)” value in test [3] turned out to be 15 min.

B2: MAB<BMP10>rRb-11A5 HC6/LC3.2 (p10se/p10sf)-IgG(SPA) (antibody, V domains shown)
VH: QSVEESGGRLVTPGTPLTLTCTASGFSLSSYAMSWVRQAPGKGLQFIGYISGGGSTYYASWVKGRFTISKTSTTVDLKLTSPTTEDTATYFCARGYPGYISGTWAVGQGTLVTVSS
VL: AVLTQTPSPVSAAVGGTVSISCQSSQSVVNNNRCSWFQQKPGQPPKQLIYSASTLASGVPSRFKGSGSGTQFTLTISDVQCDDAATYYCLGDYVSYGDSAFGGGTEVVVK
notes: Recombinant rabbit monoclonal IgG; also called clone 11A5; VH-2/VL-2
As to B2, in test [1], the “MR (Molar Ratio)” value was found to be 1.4. The koff in test [2] was found to be 0.00039 s⁻¹. The “t/2 diss (complex half-life)” value in test [3] is 30 min.

B3: MAB<BMP10>rRb-13G6 (p10tf/p10tg)-IgG(SPA) (antibody, V domains shown)
VH: QSLEESGGRLVTPGTPLTLTCTVSGFSLSNYAMSWVRQAPGMGLEYIGYISASGNTYYASWVKGRFTISKTSTTVDLKMTSPTTEDTATYFCARGYSGWISGTWAVGQGTLVTVSS
VL: AVLTQTPSPVSAAVGGTVNIGCQSSQSVVNNNRLSWFQQRPGQPPKQLIYRASTLASGVPSRFKGSGSGTQFTLTISDVQCDDAATYYCLGDYVSYSEAAFGGGTEVVVK
notes: Recombinant rabbit monoclonal IgG; also called clone 13G6; VH-4/VL-4
As to B3, in test [1], the “MR (Molar Ratio)” value turned out to be 1.3. Besides, in test [2], the koff was under 0.0001 s⁻¹. Moreover, the “t/2 diss (complex half-life)” value in test [3] is over 115 min.

B4: 11C10 (antibody, V domains shown)
VH: QSLEESGGRLVTPGTALTVTCTVSGIDLSRNLMSWVRQAPGEGLEWIGSINFRNITWYASWAKGRFTISKTSTTVDLRISSPTTEDTATYFCARGVYVNSNGYYSLWGQGTPVTVSS
VL: DIVMTQTPASVEAAVGGTVTINCQASQSVSNLLAWYQQKPGQPPKLLIYGASKLESGVPSRFKGSGSGTQFTLTINDLECDDAATYYCQTYWGGDGTSYLNPFGGGTEVVVK
notes: Rabbit monoclonal IgG; also called clone 11C10; VH-3/VL-3
For the molecule B4, the “MR (Molar Ratio)” value in test [1] came out at 1.3. Also, the koff in test [2] amounted to 0.00045 s⁻¹. For the same molecule, the “t/2 diss (complex half-life)” value in test [3] was 26 min.

B5: MAB<BMP10>rRb-14C8 HC2/LC3 (p10th/p10ti)-IgG(SPA) (antibody, V domains shown)
VH: QSVEESGGRLVTPGTPLTLTCTASGIDLSRYAMTWVRQAPGKGLEWIGIIGASSGTWYASWAKGRFTIAKTSTTVDLRITSPTTEDTATYFCARDNGDSKDYAFDPWGPGTLVTVSS
VL: IDMTQTPSPVSAAVGDTVTINCQASENIYSFLAWYQQKPGHSPNLLIYFASKLVSGVPSRFKGSGSGTQFTLTISDVQCDDAATYYCQQTYTYSNGDNPFGGGTEVVVK
notes: Recombinant rabbit monoclonal IgG; also called clone 14C8; VH-5/VL-5
With B5, in test [1], the “MR (Molar Ratio)” value turned out to be 1.3. Moreover, the koff in test [2] worked out at 0.0012 s⁻¹. Besides, in test [3], the “t/2 diss (complex half-life)” value was 10 min.

B6: MAB<BMP10>rRb-8G5 HC3/LC5 (p10qz/p10ra)-IgG(SPA) (antibody, V domains shown)
VH: QSLEESGGDLVKPGASLTLTCTASGFSFSSSYWICWVRQAPGKGLEWIACIYAGSSDITYYASWAKGRFTVSKTSSPTVTLQMTSLTAADTATYFCARGRYYVDGYADYYPGDFNLWGPGTLVTVSS
VL: DIVMTQTPASVEAAVGGTVTIKCQASQSISSYLAWYQQKSGQPPKLLIYLASTLESGVPSRFKGSGSGTEFTLTISDLECADAATYYCQSYYYSSSSSYGSAFGGGTEVVVK
notes: Recombinant rabbit monoclonal IgG; also called clone 8G5; VH-8/VL-8
For the molecule B6, the “MR (Molar Ratio)” value in test [1] is 1.2. Further, in test [2], the koff came to 0.0021 s⁻¹. In addition, the “t/2 diss (complex half-life)” value in test [3] is 6 min.

B7: MAB<BMP10>rRb-2H8 HC7/LC6 (p10qv/p10qw)-IgG(SPA) (antibody, V domains shown)
VH: QSVEESGGRLVTPGTPLTLTCTASAFSLSRYVMSWVRQAPGKGLEFIGFINASGSTSYASWAKGRFTISKTSTTVDLKMTSLTTEDTATYFCATGNLWGPGTLVTVSS
VL: DIVMTQTPSSVSGPVGGTVTINCQASQNIYSNLAWYQQKPGQPPKLLIYYASTLVSGVPSRFKGSGSGTQFTLTISDLECANAATYYCQSKDGPTSSTYGAFGGGTEVVVR
notes: Recombinant rabbit monoclonal IgG; also called clone 2H8; VH-6/VL-6
B7: the “MR (Molar Ratio)” value in test [1] is 1.2. Also, the koff in test [2] was found to be 0.0003 s⁻¹. For the same molecule, the “t/2 diss (complex half-life)” value in test [3] came to 38 min.

B8: MAB<BMP10>rRb-9E7 HC12/LC7 (p10rw/p10rx)-IgG(SPA) (antibody, V domains shown)
VH: QSLEESGGGLVQPEGSLTLTCIASAFSFSSGYYMCWVRQAPGKGLEWIACIYAGSSGTTYYASWAKGRFTISKASSTTVTLLMTSLTAADTATYFCARGPGASGYRLGLWGPGTLVTVSS
VL: DVVMTQTPASVSEPVGGTVTIKCQASEDIYRLLAWYQQKPGQPPKLLIYDASDLASGVPSRLSGSGSGTEYTLSISDLECADAATYYCQQGYYISGGDSFGGGTEVVVK
notes: Recombinant rabbit monoclonal IgG; also called clone 9E7
As for B8, the “MR (Molar Ratio)” value in test [1] was found to be 1.4. Moreover, the koff in test [2] is 0.00054 s⁻¹. The “t/2 diss (complex half-life)” value in test [3] worked out at 21 min.
